These results are taken from patent publication US20230241258A1 (Bristol-Myers Squibb, published 2023).

The target of assay [1] is T1, human PD-L1 (human, UniProt Q9NZQ7 19-290). The assay can be described thus: cell-based or functional assay.
Assay [2] has as its target T1, human PD-L1. Kind of assay: competition autoradiography on frozen tissue sections; unlabeled A02 at 0.025, 0.25, 2.5 and 25 nM displaces 0.25 nM 18F-DBCO-A02 radioligand.
Assay [3] addresses T1, human PD-L1. The assay can be described thus: radioligand cell binding on ice for 1 hour, gamma counter. The procedure: After the incubation period, cell samples were centrifuged at 200×g and the supernatant was discarded. Cell pellets were resuspended in 1 mL PBS+0.5% BSA and the wash procedure repeated for a total of 3 washes. Following the final wash, cells were again centrifuged at 200×g and the supernatant was discarded. The radioactivity of the remaining cell pellets was then measured by gamma counter.

B1: [^18F]-radiolabeled-A02-PEG-DBCO-FPPEGA (designed binder)
chain: EVVAATPTSLLISWSYDGPIDRYYRITYGETGGNSPVQEFTVPPDQKTATISGLKPGVDYTITVYAVRLEEAHYNREFPISINYRTPC
modifications: C-terminal cysteine linked to Maleimide-PEG4-DBCO and clicked to [^18F]-FPPEGA (produced as described in Example 9)
On to B1, for which, in the assay with human PD-L1 [1], the “maximum radiotracer uptake ratio, hPD-L1(+) L2987 vs. hPD-L1(-) HT-29 xenografts” value amounted to 3.53 ratio; the “radiotracer uptake in PD-L1(+) L2987 xenografts relative to PD-L1(-) HT-29 xenografts, PET in mice, co-injected with 3 mg/kg unlabeled A02 Adnectin” value turned out to be 1.04 fold; the “radiotracer uptake in PD-L1(+) L2987 xenografts relative to PD-L1(-) HT-29 xenografts, PET in mice, final 10 minutes of the time-activity curve” value was 3.05 fold.

B2: A02 Adnectin, cold (unlabeled) (designed binder)
chain: EVVAATPTSLLISWSYDGPIDRYYRITYGETGGNSPVQEFTVPPDQKTATISGLKPGVDYTITVYAVRLEEAHYNREFPISINYRTPC
notes: also called unlabeled anti-PD-L1 A02 adnectin
With B2, the binding result with human PD-L1 [2] is on record as “binds”.

B3: [^18F]-E01-4PEG-DBCO-FPPEGA (designed binder)
chain: GVSDVPRDLEVVAATPTSLLISWRAQLSPSFYYRITYGETGGNSPVQEFTVPNDVMTATISGLKPGVDYTITVYAVTTHGVYFYSPISINYRTPC
modifications: C-terminal cysteine thiol linked to Maleimide-PEG4-DBCO, which is clicked to [^18F]-FPPEGA (^18F prosthetic group)
notes: also called ^18F-radiolabeled E01-4PEG-DBCO; ^18F-E01 adnectin radiotracer
On to B3, for which the “fold cell associated radioactivity, PD-L1-positive L2987 cells over PD-L1-negative HT-29 cells” value in the assay with human PD-L1 [3] was found to be 44.6 fold.
